Here are results for one molecule from US20070135335A1 (AUTOGEN RESEARCH, published 2007).

The target in series [1] is T1, GST-CLK1 (recombinant human CLK1 fused to glutathione S-transferase, pGEX4T-1) (human, UniProt P49759 1-484).
T1 construct: Expressed in E. coli BL21; whole entry named; not shown: glutathione S-transferase tag of expression vector pGEX4T-1
Nature of the series: SPR (Biacore J), Beacon immobilised on CM5 chip, GST-CLK as analyte. The procedure: (§1) FIG. 3 is a graphical representation showing the interaction between Beacon and human CLK1, 2 and 4. SPR analyses were performed as described in the Examples. Beacon immobilized on CM5 sensor chip generated 1800-2100 RU. Analyte samples injected and the heat treatments are as listed here:—
(§2) SPR analyses were performed with minor variations as described in Walder et al., 2002, supra using a Biacore J instrument (Biacore AB). Beacon was attached to a CM5 sensor chip at pH 5.5 by an amine coupling reaction. HBS-EP (10 mM Hepes pH 7.4/0.15 M NaCl/3 mM EDTA/0.005% Polysorbate 20) was used as running buffer. Flow cells 1 and 2 in the sensor chip were treated in the same manner except that ligand was absent in flow cell 2 which served as a reference cell. Binding experiments were performed in dual channel mode and the reference subtracted sensorgrams represented true binding patterns between ligand and analyte. Test samples diluted to 130 μl in running buffer were injected over a fixed duration of 4 min. For heat treatments, proteins were initially diluted to 20 μl in running buffer, incubated at 65 or 70° C. for 10 min, centrifuged for 30 sec, reconstituted to a final volume of 130 μl with running buffer and injected as usual. Between injections, chips were regenerated using 40 μl of 10 mM NaOH.
(In SPR one partner is held on a chip, and binding of the other changes the refractive index at the surface.)

Series [2] addresses T2, GST-CLK4 (recombinant human CLK4 fused to glutathione S-transferase, pGEX4T-1) (human, UniProt Q9HAZ1 1-481).
T2 construct: Expressed in E. coli BL21; whole entry named; not shown: glutathione S-transferase tag of expression vector pGEX4T-1
The series is described as above. The procedure: as §1, §2

For series [3], the target named is T3, GST-CLK2 (recombinant human CLK2 fused to glutathione S-transferase, pGEX4T-1) (human, UniProt P49760 1-499).
T3 construct: Expressed in E. coli BL21; whole entry named; not shown: glutathione S-transferase tag of expression vector pGEX4T-1
The description is as above. On the procedure:
as §1, §2

The target of series [4] is maltose binding protein (UniProt P0AEX9 27-396 = MBP). The experiment in a line: SPR (Biacore J), Beacon immobilised on CM5 chip. The procedure:
as §2

Series [5] deals with T4, GST (recombinant glutathione S-transferase, pGEX2T) (UniProt P08515 1-218 = GST).
T4 construct: Control protein in SPR
Nature of the series: SPR (Biacore J), Beacon immobilised on CM5 chip. On the procedure: as §2

Series [6] deals with the molecule itself. Nature of the series: SPR (Biacore J), Beacon immobilised on CM5 chip. On the procedure:
as §2

In series [7] the target is T5, bovine serum albumin (bovine, UniProt P02769 25-607).
T5 construct: Unrelated control protein in SPR
Nature of the series: SPR (Biacore J), Beacon immobilised on CM5 chip. The procedure:
as §2

T3 sequence (P49760 whole entry, the tested form may be a part): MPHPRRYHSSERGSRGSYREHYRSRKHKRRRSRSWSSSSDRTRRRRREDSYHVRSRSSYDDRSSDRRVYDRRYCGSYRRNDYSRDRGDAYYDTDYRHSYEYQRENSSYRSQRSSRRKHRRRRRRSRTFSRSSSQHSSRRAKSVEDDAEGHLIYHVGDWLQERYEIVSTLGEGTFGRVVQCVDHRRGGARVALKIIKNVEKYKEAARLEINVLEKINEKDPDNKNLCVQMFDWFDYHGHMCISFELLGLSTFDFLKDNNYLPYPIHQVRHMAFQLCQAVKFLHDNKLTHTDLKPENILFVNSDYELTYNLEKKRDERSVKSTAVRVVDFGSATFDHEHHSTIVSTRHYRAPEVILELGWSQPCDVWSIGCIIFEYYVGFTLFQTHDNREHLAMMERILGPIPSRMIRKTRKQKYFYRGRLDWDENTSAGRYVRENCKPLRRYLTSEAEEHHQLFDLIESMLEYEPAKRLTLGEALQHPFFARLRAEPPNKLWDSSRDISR
T4 sequence (P08515 whole entry): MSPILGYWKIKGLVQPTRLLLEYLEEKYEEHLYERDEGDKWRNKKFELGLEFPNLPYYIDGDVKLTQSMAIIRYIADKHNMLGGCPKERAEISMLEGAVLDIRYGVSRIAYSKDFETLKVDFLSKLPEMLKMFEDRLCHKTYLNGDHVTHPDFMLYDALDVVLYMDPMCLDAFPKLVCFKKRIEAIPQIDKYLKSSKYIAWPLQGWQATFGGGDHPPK
T5 sequence (P02769 25-607 limits assumed): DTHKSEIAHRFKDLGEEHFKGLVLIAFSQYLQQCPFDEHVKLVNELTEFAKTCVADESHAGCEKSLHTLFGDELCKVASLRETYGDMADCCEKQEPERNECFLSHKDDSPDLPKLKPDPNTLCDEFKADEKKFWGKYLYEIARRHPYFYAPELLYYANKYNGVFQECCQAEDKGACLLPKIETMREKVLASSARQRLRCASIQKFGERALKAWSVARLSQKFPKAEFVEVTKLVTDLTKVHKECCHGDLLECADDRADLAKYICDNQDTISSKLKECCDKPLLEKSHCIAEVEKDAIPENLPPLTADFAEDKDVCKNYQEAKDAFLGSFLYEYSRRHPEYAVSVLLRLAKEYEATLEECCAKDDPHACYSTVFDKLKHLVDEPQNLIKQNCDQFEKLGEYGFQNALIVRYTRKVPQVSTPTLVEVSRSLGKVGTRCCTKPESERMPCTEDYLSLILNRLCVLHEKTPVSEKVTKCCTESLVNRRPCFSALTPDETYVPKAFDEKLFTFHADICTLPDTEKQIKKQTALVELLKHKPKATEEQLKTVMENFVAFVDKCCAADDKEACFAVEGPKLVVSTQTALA
T1 sequence (P49759 whole entry, the tested form may be a part): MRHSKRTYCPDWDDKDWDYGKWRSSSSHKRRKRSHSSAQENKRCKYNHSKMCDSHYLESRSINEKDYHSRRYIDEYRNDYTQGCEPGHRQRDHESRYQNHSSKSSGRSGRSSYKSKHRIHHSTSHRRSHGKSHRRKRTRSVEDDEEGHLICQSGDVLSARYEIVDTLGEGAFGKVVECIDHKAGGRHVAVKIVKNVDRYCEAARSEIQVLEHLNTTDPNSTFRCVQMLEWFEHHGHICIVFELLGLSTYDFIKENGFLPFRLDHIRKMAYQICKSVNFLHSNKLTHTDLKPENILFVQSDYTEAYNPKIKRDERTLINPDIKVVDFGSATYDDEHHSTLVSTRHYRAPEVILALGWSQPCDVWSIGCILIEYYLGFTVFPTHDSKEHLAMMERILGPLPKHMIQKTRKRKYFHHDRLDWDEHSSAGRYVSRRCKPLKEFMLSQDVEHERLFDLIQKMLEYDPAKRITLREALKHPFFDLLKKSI
T2 sequence (Q9HAZ1 whole entry, the tested form may be a part): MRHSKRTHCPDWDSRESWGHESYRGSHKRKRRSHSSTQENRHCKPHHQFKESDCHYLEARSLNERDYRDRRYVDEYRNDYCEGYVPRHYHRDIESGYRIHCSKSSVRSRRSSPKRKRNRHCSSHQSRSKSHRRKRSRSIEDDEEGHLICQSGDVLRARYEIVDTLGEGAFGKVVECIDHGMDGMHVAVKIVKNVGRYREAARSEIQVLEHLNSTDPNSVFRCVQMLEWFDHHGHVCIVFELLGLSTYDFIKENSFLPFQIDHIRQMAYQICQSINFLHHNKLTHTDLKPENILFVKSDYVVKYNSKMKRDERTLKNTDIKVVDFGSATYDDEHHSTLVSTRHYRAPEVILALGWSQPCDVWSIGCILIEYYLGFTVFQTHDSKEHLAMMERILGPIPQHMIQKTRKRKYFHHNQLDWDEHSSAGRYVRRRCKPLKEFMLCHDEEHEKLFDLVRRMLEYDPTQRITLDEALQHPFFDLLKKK

B1: Beacon (recombinant, expressed as GST-Beacon in E. coli, GST tag cleaved off with thrombin) (ligand)
chain: MIEVVCNDRLGKKVRVKCNTDDTIGDLKKLIAAQTGTRWNKIVLKKWYTIFKDHVSLGDYEIHDGMNLELYYQ
notes: Immobilised on a CM5 chip by amine coupling (SPR); also injected as analyte over itself
In the case of B1, the binding result in series [1] is “binds”; in series [2] it was “binds”; in series [3], “binds”; in series [4], “no binding”; in series [5] it was “no binding”; in series [6], “no binding”. Further, the binding result in series [7] is “no binding”.
